In assay [1] the target is T1, Homo sapiens factor Bb protein (human, UniProt P00751 260-764).
T1 construct: Bought from CompTech (A155); also called complement factor Bb; human factor Bb
The experiment in a line: SPR single cycle kinetics, antibody on Protein A chip, antigen analyte. The method, then: (§1) The ability of VH4/VK6 and VH6/VK7 to bind to zymogen factor B and factor Bb from both human and cynomolgus monkey was determined by surface plasmon resonance using a Biacore T200. Human factor B and factor Bb were purchased from Comptech and cynomolgus monkey factor B and factor Bb were purified in-house. Briefly, the monoclonal antibodies were captured on a Biacore Series S Protein A chip in HBSP+ (10 mM HEPES, 150 mM NaCl, 0.05% P20 pH 7.4) at a flow rate of 30 μL/min. A five-point concentration series of each analyte was tested for binding using single cycle kinetics with a contact time of 180 seconds per concentration followed by a 600 sec dissociation at 25° C. and a flow rate of […]. Both human and cynomolgus monkey factor B started at a concentration of 500 nM followed by 2-fold dilutions, while human and cynomolgus monkey factor Bb started at concentrations of 30 nM and 150 nM, respectively, followed by 2-fold dilutions. Data were analyzed using the Biacore evaluation software using a 1:1 binding model. […] Binding to human or cynomolgus monkey factor B was barely detectable and the small signal that was observed was dominated by non-specific binding.

For assay [2], the target named is T1, Homo sapiens factor Bb protein. Kind of assay: BLI, multi-cycle kinetics, antibody loaded on anti-hIgG Fc sensors, human factor Bb in solution (100 nM to 0.14 nM), 1:1 fit. The method, then: Multicycle kinetic analysis was performed on CHO and HEK-produced VH6/VK7-IgG4v2 antibodies using biolayer interferometry. Antibodies were diluted to 10 μg/mL in PBS+ 0.02%. Tween20, 0.1% BSA, 0.05% sodium azide and loaded onto anti-hIgG Fc sensors (pre-equilibrated in the same buffer) for 90 seconds followed by a 60-minute baseline in buffer. Binding of a concentration series of human factor Bb (Complement Technologies, #A155), ranging from 100 nM to 0.14 nM in 2-fold dilutions, was measured in a 300 second association in the same buffer, followed by a 300 second dissociation step.

For assay [3] the target is unchanged. Kind of assay: SPR single cycle kinetics; against cynomolgus monkey factor Bb. On the procedure:
as §1

For assay [4] the target is unchanged. Kind of assay: SPR multi-cycle kinetics, IgG on Protein A chip, factor Bb analyte. On the procedure: Antibodies were diluted in running buffer to a final concentration of 0.5 μg/ml. At the start of each cycle, antibodies were loaded onto Fc2, Fc3 and Fc4 of the Protein A chip (GE Healthcare, Little Chalfont, UK). IgGs were captured at a flow rate of 10 μl/min to give an immobilisation level (RL) of ˜63 RU, the theoretical value to obtain an Rmax of ˜50 RU. The surface was then allowed to stabilize. Kinetic data was obtained with factor Bb as analyte and using a flow rate of 30 μl/min to minimize any potential mass transfer effects. Multiple repeats of a blank and a repeat of a single concentration of the analyte were programmed into the kinetic run in order to check the stability of both the surface and analyte over the kinetic cycles. For kinetic analysis, a two-fold dilution range was selected from 12. 5 nM to 0. 391 nM factor Bb. The association phase of factor Bb was monitored for 360 seconds and the dissociation phase was monitored for 600 seconds. Regeneration of the Protein A surface was conducted using two injections of 10 mM glycine-HCL pH 1. 5. The signal from the reference channel Fc1 was subtracted from that of Fc2, Fc3 and Fc4 to correct for differences in non-specific binding to a reference surface, and a global Rmax parameter was used in the 1-to-1 binding model.
The sensorgrams and fitted data for the binding of chimeric antibodies and humanized variants to factor Bb are shown in FIGS. 4A-4C. The relative KD was calculated by dividing the KD of the humanized variants by that of the chimeric antibody on the same chip. The kinetic parameters measured for the interaction of factor Bb with chimeric antibodies and humanized variants are shown in Table 10.

The target is the same in assay [5]. Kind of assay: SPR single cycle kinetics; ratio against VH0/Vκ0. The method, then: In order to assess the binding of all humanized variants, single cycle kinetic analysis was performed on supernatants from transfected cell cultures. […] All single cycle kinetic experiments were run at 25° C. with HBS-P+running buffer (pH 7. 4) (GE Healthcare, Little Chalfont, UK).
Antibodies were diluted in running buffer to a final concentration of 1 μg/ml, based on concentrations assessed by ELISA titer. At the start of each cycle, antibodies were loaded onto Fc2, Fc3 and Fc4 of the Protein A chip (GE Healthcare, Little Chalfont, UK). IgGs were captured at a flow rate of 10 μl/min to give an immobilization level (RL) of ˜63 RU, the theoretical value to obtain an Rmax of ˜50 RU. The surface was then allowed to stabilize. Single cycle kinetic data was obtained with factor Bb (CompTech, Tyler, USA) as the analyte at a flow rate of 30 μl/min to minimize any potential mass transport limitations. Multiple repeats with the reference chimeric antibody were performed to check the stability of the surface and analyte over the kinetic cycles. The signal from the reference channel Fc1 (no antibody) was subtracted from that of Fc2, Fc3 and Fc4 to correct for differences in non-specific binding to a reference surface. A four point, two-fold dilution range from 0. 78 nM to 6. 25 nM factor Bb without regeneration between each concentration was used. The association phase for the four injections of increasing concentrations of factor Bb was monitored for 200 seconds each time and a single dissociation phase was measured for 200 seconds following the last injection of factor Bb. Regeneration of the Protein A surface was conducted using two injections of 10 mM glycine-HCL pH 1. 5.
The sensorgrams and fitted data for the single cycle kinetics are shown in FIGS. 1A-1D and the kinetic parameters measured for the interaction of factor Bb with each antibody are shown in Table 7. The relative KD was calculated by dividing the KD of the VH0/Vκ0 reference antibody by that of the humanized variant assayed in the same experiment.

For assay [6] the target is unchanged. Kind of assay: BLI Octet, biotinylated antibody on SA biosensors. The method, then:
Briefly, biotinylated antibodies were loaded onto SA Biosensors equilibrated in PBS, 0.1% BSA, 0.02% Tween-20 (assay buffer). After a 60 second baseline in assay buffer, antibodies were loaded onto the probes for 180 seconds, followed by another 60 second baseline. Association to human (Comptech) or cynomolgus monkey factor Bb (purified in-house) was measured for 300 seconds, followed by a 300 second dissociation. Kinetic parameters were calculated by the Octet Analysis software using a 1:1 binding model.

Several values for one entry are separate records, joined by “and”; a condition that tells them apart may be missing. Equal entries are not always repeated.

T1 sequence (P00751 260-764 limits assumed): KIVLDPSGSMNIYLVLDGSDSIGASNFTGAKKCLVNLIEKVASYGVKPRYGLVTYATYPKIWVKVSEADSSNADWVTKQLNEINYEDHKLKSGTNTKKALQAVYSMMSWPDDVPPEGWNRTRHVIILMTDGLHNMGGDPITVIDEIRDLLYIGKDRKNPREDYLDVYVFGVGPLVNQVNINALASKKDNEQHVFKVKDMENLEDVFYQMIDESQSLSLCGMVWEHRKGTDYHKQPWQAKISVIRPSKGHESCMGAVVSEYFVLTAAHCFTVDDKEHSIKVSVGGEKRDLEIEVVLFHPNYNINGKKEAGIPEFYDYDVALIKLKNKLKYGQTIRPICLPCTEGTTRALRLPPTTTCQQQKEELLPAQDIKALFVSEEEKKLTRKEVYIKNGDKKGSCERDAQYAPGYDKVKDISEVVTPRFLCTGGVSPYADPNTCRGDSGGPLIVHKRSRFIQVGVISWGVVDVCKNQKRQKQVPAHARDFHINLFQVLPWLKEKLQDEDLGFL

B1: VH6/Vκ7-IgG4v2 (antibody)
heavy: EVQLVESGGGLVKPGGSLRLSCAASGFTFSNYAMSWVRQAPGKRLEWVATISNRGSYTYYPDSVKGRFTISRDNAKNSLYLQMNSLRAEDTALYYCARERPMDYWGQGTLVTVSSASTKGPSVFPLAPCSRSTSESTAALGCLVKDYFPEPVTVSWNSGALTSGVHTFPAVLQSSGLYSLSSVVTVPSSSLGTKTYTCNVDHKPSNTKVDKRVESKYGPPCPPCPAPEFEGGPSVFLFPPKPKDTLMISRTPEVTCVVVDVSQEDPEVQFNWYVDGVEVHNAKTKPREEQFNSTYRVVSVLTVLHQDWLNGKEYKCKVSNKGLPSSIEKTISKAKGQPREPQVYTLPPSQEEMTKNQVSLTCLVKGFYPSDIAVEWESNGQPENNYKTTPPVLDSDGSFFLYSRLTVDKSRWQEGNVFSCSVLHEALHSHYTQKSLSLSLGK
light: DIQMTQSPSTLSASVGDRVTITCKASQDVGTAVAWYQQKPGKAPKLLIYWASTRHTGVPDRFSGSGSGTDFTLTISSLQAEDFAVYFCHQHSSNPLTFGQGTKLEIKRTVAAPSVFIFPPSDEQLKSGTASVVCLLNNFYPREAKVQWKVDNALQSGNSQESVTEQDSKDSTYSLSSTLTLSKADYEKHKVYACEVTHQGLSSPVTKSFNRGEC
notes: also called VH6/VK7-IgG4v2; VH6/VK7-IgG4v2_HEK
Regarding B1, in assay [1], binding was put at a Kd of 5.92 nM, the koff is 0.00138 s⁻¹ and the on-rate (kon) was 232000 M⁻¹ s⁻¹. In addition, the Kd in assay [2] was 2.9 nM. In addition, the “fold higher affinity for human factor Bb compared to cynomolgus monkey factor Bb” value in assay [3] is approximately 10 fold.

B2: VH0/Vκ0 (Chimeric) (antibody, V domains shown)
VH: EVQLVESGGALVKPGGSLKLSCAASGFTFSNYAMSWVRQTPEKRLEWVATISNRGSYTYYPDSVKGRFTISRDNAKNTLYLQMSSLRSEDTALYYCARERPMDYWGQGTSVTVSS
VL: DIVMTQSHKFMSTSVGDRVSITCKASQDVGTAVAWYQQKPGQSPKLLIYWASTRHTGVPDRFTGSGSGTDFTLTITNVQSEDLAVYFCHQHSSNPLTFGAGTKLELK
notes: also called chimeric antibody
As to B2, in assay [4], the Kd was 1.99 nM and 1.91 nM and 1.9 nM; the koff was 0.000969 s⁻¹ and 0.000954 s⁻¹ and 0.00094 s⁻¹; the kon was 487000 M⁻¹ s⁻¹ and 500000 M⁻¹ s⁻¹ and 495000 M⁻¹ s⁻¹. Besides, in assay [5], the “Relative KD” value came to 1. Also, the Kd in assay [6] amounted to 2 nM.

For the origin of these results see US20210332115A1 (Sanofi, published 2021).
